Consider four molecules from paper PMC4641775 (2016).

Read-outs that look alike come from different tables or passages of the source.

Experiment [1] concerns the target PKR (Homo sapiens) (UniProt P19525). The note with it: cited from earlier work.
For experiment [2] the target is unchanged. As to the kind of experiment: sedimentation equilibrium. The note with it: cited from earlier work.
Experiment [3] addresses PKR kinase kinase domain (Homo sapiens) (UniProt P19525). The conditions noted are these: cited from earlier work.
The target of another experiment is T1, PKR (Homo sapiens, UniProt P19525).
T1 chain: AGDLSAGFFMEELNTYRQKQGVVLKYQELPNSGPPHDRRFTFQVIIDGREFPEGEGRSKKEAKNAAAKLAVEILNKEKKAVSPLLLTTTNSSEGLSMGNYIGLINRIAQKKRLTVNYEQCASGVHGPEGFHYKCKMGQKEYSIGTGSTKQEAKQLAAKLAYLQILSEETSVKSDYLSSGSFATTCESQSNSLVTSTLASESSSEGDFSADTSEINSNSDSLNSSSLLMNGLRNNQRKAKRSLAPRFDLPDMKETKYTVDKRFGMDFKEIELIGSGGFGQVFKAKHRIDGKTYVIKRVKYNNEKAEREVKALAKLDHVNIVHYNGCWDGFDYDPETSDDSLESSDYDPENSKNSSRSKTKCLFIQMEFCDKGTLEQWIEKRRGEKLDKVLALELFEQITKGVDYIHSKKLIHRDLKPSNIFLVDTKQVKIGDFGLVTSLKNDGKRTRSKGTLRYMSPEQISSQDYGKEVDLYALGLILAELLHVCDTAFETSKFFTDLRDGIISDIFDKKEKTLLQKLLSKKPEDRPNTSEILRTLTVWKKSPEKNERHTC
As to the kind of experiment: sedimentation equilibrium.

One may read the Kd as the concentration at which binding is half-saturated. As for PKR (from UniProt P19525), the results for the Kd in the experiment with PKR (Homo sapiens) [1] and with PKR (Homo sapiens) [2] were 500 µM and 450 µM, respectively. Regarding “PKR second dsRBD dsRBD2 (from UniProt P19525)”, in experiment [3], the Kd was 250 µM.

B1: PKR (protein)
chain: T1 chain
modifications: K371pAzF labeled with Alexa Fluor 488-DIBO
B1 displayed a dissociation constant Kd in the experiment with PKR of 1260 µM.

B2: PKR (protein)
chain: T1 chain
modifications: K261pAzF labeled with Alexa Fluor 488-DIBO
On to B2, for which binding with PKR was put at a Kd of 94 µM.
